Test results from patent US20090054342A1 (COMPUGEN, published 2009).
No end group written: not given here.

What was measured:
[1] = target: MrgX1 (Mas-related G-protein coupled receptor member X1) (UniProt Q96LB2); test: cell-based or functional assay
Mas receptor = target: T1, Mas receptor (UniProt P04201 1-325, limits assumed); test: cell-based or functional assay
T1 sequence (looked up): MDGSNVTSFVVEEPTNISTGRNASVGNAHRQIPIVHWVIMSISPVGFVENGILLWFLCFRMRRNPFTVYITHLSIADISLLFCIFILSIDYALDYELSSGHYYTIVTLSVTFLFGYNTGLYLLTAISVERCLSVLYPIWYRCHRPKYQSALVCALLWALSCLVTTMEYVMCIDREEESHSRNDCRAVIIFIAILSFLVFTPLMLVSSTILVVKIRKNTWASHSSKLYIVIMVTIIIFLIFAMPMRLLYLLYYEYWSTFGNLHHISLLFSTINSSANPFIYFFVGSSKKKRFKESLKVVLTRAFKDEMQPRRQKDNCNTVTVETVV

[2] = target: MrgX1 (Mas-related G-protein coupled receptor member X1) (UniProt Q96LB2 1-322, limits assumed); test: cell-based or functional assay
MrgX1 (Mas-related G-protein coupled receptor member X1) (UniProt Q96LB2 1-322, limits assumed), sequence (Q96LB2 whole entry): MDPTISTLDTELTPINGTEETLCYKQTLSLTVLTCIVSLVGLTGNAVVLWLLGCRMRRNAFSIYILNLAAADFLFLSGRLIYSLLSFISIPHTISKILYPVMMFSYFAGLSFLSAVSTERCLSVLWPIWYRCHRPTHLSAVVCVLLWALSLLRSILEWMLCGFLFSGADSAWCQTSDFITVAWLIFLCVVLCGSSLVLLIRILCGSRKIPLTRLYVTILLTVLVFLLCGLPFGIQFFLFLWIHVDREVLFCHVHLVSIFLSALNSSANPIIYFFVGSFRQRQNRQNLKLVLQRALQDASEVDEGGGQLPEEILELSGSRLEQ

[3] = target: T2, FPRL1 (FPR-related receptor 1) (UniProt P25090 1-351, limits assumed); test: competitive radioligand binding against 0.025 nM [125I] WKYMVm on FPRL1-transfected CHO cells, 90 min at 25 C
T2 construct: whole, on cells; Expressed in CHO cells (with Gα16 in the calcium flux assay); also called lipoxin A4 receptor; LXA4R
T2 sequence (looked up): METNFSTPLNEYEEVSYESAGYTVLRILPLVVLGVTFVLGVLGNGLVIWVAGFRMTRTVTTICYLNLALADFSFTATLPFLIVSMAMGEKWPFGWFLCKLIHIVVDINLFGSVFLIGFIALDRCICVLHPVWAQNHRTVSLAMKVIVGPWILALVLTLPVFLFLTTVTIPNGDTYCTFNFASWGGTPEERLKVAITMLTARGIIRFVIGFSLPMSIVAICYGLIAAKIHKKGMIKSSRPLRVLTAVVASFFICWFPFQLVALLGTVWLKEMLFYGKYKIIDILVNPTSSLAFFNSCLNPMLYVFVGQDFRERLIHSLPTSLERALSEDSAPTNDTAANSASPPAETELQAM
Procedure: The specific binding of Peptide 58 (SEQ ID NO:1) to FPRL1 was analyzed by testing its ability to compete with 0.025 nM [¹²⁵I] WKYMVm (W peptide), a known agonist of FPRL1, for binding to FPRL1 in CHO transfected cells. CKβ8-1 (aa 46-137), another known ligand of FPRL1 was used as a positive control in this assay (Chiang et al 2006, Pharmacological Reviews 58, 463-487). Peptides were incubated with cells for 90 minutes at 25° C., in the presence of Incubation Buffer (50 mM HEPES, pH 7.4, 100 mM NaCl, 5 mM KCl, 5 mM MgCl2, 2 mM Ca C12, 0.5% BSA) and the amount of radioactive W peptide was measured.

MrgX1 (Mas-related G-protein coupled receptor member X1) (UniProt Q96LB2), sequence (Q96LB2 whole entry): as the sequence (Q96LB2 whole entry) above

BAM22 (bovine adrenal medulla peptide 22) (from UniProt P01211 206-227)
EC50 (calcium flux dose response) [1]: > 50 nM

FLGYSIYLNRKRRGDPAFKRRLRD [Peptide 61_S]
EC50 (calcium flux dose response) (Mas receptor): ≥ 500 nM

GIGSVWHWKHRVATRFTLPRFLQ [Peptide 60_S]
EC50 (calcium flux dose response) [2]: ≥ 300 nM

SMVHRWSRAVLFPAAHRP (also: acetate salt) [Peptide 33_V]
EC50 (calcium flux dose response) (Mas receptor): ≥ 1000 nM

B1: Peptide 58 (peptide)
peptide: TIPMFVPESTSKLQKFTSWFM-NH2
notes: Synthetic peptide (SPPS); also called P58; peptide P58
IC50 [3]: 189 nM
Ki [3]: 54.1 nM
